# Reference: paper PMC6245935, “Fructose-1,6-bisphosphate aldolase encoded by a core gene of Mycoplasma hyopneumoniae contributes to host cell adhesion” (Veterinary Research, 2018)
# Molecular target: fibronectin (UniProt P02751 32-2477)
# Experiment: SPR; BIAcore X100 Plus; fibronectin amine-coupled to CM5 chip (2868 RU); rFBA analyte 0-100 ug/mL in HBS-EP (10 mM HEPES, 150 mM NaCl, 3 mM EDTA, 0.05% P20), 30 uL/min, 180 s association, 1000 s dissociation, 20 °C
# Conditions: both partners purified
# Sequence of fibronectin (P02751 32-2477): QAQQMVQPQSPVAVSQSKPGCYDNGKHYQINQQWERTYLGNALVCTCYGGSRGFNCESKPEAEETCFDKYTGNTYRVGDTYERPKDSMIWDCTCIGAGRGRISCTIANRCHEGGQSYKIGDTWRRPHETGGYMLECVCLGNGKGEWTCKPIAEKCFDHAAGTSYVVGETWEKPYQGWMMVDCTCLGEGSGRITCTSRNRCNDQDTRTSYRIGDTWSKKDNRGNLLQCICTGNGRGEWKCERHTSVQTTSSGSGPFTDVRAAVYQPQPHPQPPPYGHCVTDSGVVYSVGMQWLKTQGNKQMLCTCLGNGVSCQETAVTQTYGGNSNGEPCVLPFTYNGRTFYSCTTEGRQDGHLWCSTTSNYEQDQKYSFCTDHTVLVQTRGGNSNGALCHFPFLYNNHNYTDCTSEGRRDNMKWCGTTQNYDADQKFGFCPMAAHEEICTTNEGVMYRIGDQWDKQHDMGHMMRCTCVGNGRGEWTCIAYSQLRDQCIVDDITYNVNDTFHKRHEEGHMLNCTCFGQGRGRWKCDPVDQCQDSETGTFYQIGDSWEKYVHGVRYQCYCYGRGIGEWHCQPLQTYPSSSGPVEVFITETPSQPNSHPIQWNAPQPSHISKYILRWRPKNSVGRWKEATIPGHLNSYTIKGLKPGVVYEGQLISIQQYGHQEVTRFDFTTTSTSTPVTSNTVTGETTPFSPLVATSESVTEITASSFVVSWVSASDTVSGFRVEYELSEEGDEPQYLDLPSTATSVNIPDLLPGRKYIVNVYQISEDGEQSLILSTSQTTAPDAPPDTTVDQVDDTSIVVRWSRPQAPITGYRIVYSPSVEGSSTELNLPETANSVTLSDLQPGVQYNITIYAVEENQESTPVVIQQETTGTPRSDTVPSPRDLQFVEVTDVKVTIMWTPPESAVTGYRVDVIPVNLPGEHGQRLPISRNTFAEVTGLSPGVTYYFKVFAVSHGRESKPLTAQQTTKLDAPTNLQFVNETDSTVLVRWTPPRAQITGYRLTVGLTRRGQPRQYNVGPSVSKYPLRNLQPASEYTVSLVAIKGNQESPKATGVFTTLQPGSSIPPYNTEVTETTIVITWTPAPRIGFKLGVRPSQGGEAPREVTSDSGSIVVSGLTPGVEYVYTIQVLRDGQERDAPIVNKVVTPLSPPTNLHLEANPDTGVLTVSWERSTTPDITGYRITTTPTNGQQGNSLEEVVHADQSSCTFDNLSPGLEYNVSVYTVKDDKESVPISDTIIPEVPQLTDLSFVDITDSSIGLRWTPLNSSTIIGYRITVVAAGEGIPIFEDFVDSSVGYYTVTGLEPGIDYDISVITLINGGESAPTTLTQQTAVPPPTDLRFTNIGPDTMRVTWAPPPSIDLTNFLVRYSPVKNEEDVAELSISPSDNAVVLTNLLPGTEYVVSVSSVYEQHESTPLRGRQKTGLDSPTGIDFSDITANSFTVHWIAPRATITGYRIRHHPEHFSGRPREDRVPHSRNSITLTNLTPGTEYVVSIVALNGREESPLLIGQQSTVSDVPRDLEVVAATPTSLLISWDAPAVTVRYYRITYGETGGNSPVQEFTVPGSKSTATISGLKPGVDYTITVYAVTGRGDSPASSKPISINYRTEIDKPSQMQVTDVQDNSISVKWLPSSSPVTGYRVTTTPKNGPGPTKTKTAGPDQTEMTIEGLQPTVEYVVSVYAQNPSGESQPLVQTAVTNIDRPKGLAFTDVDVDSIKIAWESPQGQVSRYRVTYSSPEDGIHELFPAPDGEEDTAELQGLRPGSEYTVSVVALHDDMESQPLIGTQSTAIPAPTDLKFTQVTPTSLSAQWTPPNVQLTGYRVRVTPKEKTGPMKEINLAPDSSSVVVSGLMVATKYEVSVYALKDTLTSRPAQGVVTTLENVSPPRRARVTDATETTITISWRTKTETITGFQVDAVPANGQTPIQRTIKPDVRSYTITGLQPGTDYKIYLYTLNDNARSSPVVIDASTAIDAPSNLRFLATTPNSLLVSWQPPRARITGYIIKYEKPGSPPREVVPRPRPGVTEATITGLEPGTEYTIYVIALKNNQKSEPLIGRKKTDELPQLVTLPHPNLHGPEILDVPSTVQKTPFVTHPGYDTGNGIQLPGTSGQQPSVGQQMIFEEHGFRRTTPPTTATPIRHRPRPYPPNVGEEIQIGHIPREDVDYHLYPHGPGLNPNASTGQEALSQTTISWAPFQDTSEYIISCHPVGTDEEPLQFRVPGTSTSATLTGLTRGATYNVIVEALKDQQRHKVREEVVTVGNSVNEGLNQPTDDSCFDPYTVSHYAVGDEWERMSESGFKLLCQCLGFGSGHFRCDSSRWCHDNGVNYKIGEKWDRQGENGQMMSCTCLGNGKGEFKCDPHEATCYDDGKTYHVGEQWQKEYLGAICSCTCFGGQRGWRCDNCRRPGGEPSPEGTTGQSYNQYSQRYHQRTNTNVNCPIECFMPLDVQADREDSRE
binder,measurement,value
"recombinant fructose-1,6-bisphosphate aldolase (rFBA) of Mycoplasma hyopneumoniae strain 168 (enzyme, Fructose-1,6-bisphosphate aldolase (FBA) of Mycoplasma hyopneumoniae strain 168, full-length fba gene, locus MHP168_014, GenBank ADQ90241.1; The gene was cloned by site-directed mutation and overlap extension PCR 'due to the existence of rare codons'; also called fructose-bisphosphate aldolase; source: Escherichia coli BL21 (DE3), purified by Ni-chelating chromatography) MKTIISIAIDFLKNRESAHFSDIFLEVQTSLMSKWENQLPNLSTDKILTLKRGELYKLLSIDGNFVPLGDNYWTLRSDLNALVFFFFFFLKVFDCKKKKKKYRKGKMQLVNTKEMLEKALKNNYAIPHININNLEWTKAALLAAQAKKSPLIIGTSERVLTYMGGLKTIYNLVTNLIDYFKITVPVALHLDHGTYLTCKEALKNGYTSVMYDGSKEKFELNLERTEEIVRLANKVNATVEAEVGQIGGEEDGVIGNGEIANPENAKKITETGITCLAAGIGNIHGIYPPDWKSLNFEILEKISKVTKIPLVLHGGSGIPKDQIQKAIKLGIAKINVNTELQQANAAAISEFVLSGKVKQGKNFDPRKLLAPGTDAIQLLIEEKITEFGSANQA",Kd,0.468 ± 0.023 µM
same,kon,3470 ± 580 M⁻¹ s⁻¹
